How the values were obtained:
[1] = biological target: T1, human LTBR endogenously expressed on cells (HepG2, A549, A375, HCC1187, RPMI-7951, primary human breast CAFs) (human, UniProt P36941 31-435); test: cell-based or functional assay
[2] = biological target: T1, human LTBR endogenously expressed on …; test: cell-based or functional assay; remark: listed apart in the source
[3] = biological target: T1, human LTBR endogenously expressed on …; test: cell-based or functional assay; remark: listed apart in the source
[4] = biological target: T1, human LTBR endogenously expressed on …; test: cell-based or functional assay; remark: listed apart in the source
[5] = biological target: T1, human LTBR endogenously expressed on …; test: cell-based or functional assay; remark: listed apart in the source
[6] = biological target: T2, human FAP expressed on cells (transfected HEK293; FAP-CHO-K1 recombinant cell line, BPS cat no. 79947) (human, UniProt Q12884 1-760); test: flow cytometry, FAP-CHO-K1 cells
T2 construct: also called HuFAP-HEK293; Hek-FAP
Protocol: In short, 1×10⁶ cells were resuspended in the FACS buffer (1% BSA, 0.1% Sodium Azide in PBS), and 50 μl was added to each well (5×10⁴ cells/well) of a 96-U bottom plate. The cells were washed once and resuspended in 50 μl/well of FACS buffer containing a 1:3, 11-point series dilutions of constructs 4.1-4.6 and clones 4.8-4.9 followed by 1 h incubation at 4° C. […] Next, cells were washed and resuspended in FACS buffer and read on Beckman Coulter CytoFLEX. The data were analysed using FloJo V10 and GraphPad Prism v9. Clone 4.7 was tested for binding to A375 (LTBR positive cell line) and the HEK293-FAP overexpressing cell line, as described in examples 2.4 and 3.5. The EC50 values can be found in.

[7] = biological target: T3, Biotinylated hLTBR-His-Avitag (Acro, cat no LTR-H82E9-25 µg) (human, UniProt P36941 31-227, biotinylated (Avitag)); test: BLI (Octet), biotinylated LTBR on SA sensor, antibody as analyte
T3 construct: bought protein loaded on SA Streptavidin biosensors
Protocol: Briefly, Biotinylated hLTBR-His-Avitag (Acro, cat no LTR-H82E9-25 μg) was loaded on SA Streptavidin biosensors (Fortebio) in kinetics buffer (ForteBio) followed by a 2-fold dilution series starting at 50 nM of FAP/LTBR bispecific antibodies. Binding kinetics were studied in a 1× Kinetics buffer where the association was allowed for 100 seconds, followed by dissociation for 300 seconds. Data generated were referenced by subtracting a parallel buffer blank, the baseline was aligned with the y-axis, inter-step correlation by alignment against dissociation was performed, and the data were smoothed by a Savitzky-Golay filter in the data analysis software. The processed data were fitted using a 1:1 Langmuir binding model with R\hat{ }2 as a measurement of fitting accuracy. The KD and R\hat{ }2 values can be found in.

[8] = biological target: cynomologus recombinant LTBR (Octet, Example 4.8) (cynomolgus (Macaca fascicularis), UniProt P36941 31-227 (human entry), limits assumed); test: BLI (Octet), cyno LTBR immobilised on ARG sensor, antibody at 25 nM
Protocol: A 2-fold series dilution starting at 50 nM of cynomologus recombinant LTBR was immobilised on the surface of ARG biosensors (Fortebio), followed by FAP/LTBR bispecific at 25 nM. Binding kinetics were studied in a 1× Kinetics buffer where the association was allowed for 180 seconds, followed by dissociation for 100 seconds. Sensor tips were regenerated using ethylene glycol. Data generated were referenced by subtracting a parallel buffer blank, the baseline was aligned with the y-axis, inter-step correlation by alignment against dissociation was performed, and the data were smoothed by a Savitzky-Golay filter in the data analysis software. The processed data were fitted using a 1:1 Langmuir binding model with R\hat{ }2 as a measurement of fitting accuracy. The KD values can be found in.

[9] = biological target: T4, human FAP (Acro, cat no FAP-H82Q6) (human, UniProt Q12884 26-760); test: BLI (Octet), antibody captured by anti-Fc, FAP as analyte; * value outside instrument specifications
T4 construct: 'FAP is naturally a dimeric antigen'
Protocol: Binding to recombinant FAP proteins was investigated by Bio-Layer Interferometry (BLI) using the Octet instrument. Using standard amine coupling chemistry, an anti-Fc antibody was immobilised on the surface of ARG biosensors (Fortebio). The FAP/LTBR bispecific antibodies were loaded on the previously coated surface with anti-Fc capture antibody, followed by a 2-fold series dilution starting at 50 nM of either cyno FAP (Acro, cat no FAP-C82Q5) or human FAP (Acro, cat no FAP-H82Q6). Binding kinetics were studied in a 1× Kinetics buffer where the association was allowed for 200 seconds, followed by dissociation for 400 seconds. Sensor tips were regenerated using 10 mM Glycine pH 2.0. Data generated were referenced by subtracting a parallel buffer blank, the baseline was aligned with the y-axis, inter-step correlation by alignment against dissociation was performed, and the data were smoothed by a Savitzky-Golay filter in the data analysis software. The processed data were fitted using a 1:1 Langmuir binding model with R\hat{ }2 as a measurement of fitting accuracy. The Results are summarised in. Avidity was observed as FAP is naturally a dimeric antigen, and the limited detection by Octet with these molecules has been reached. Species cross-reactivity has been confirmed for all test samples.

[10] = biological target: T1, human LTBR endogenously expressed on …; test: cell-based or functional assay; remark: listed apart in the source
[11] = biological target: T1, human LTBR endogenously expressed on …; test: flow cytometry, A375 cells
Protocol: For binding to LTBR-positive cells, the A375 tumor cell line was used. At the same time, binding to LTBR-negative HEK293 cells was tested to confirm specificity. In short, the cells were resuspended in the FACS binding buffer, and live/dead efluro450 viability dye was added at a 1:1000 dilution to the cell suspension, followed by incubation at room temperature in the dark for 30 minutes. The cells were then diluted to 2 e5/ml, and 100 ul was added to wells of a 96-well U-bottom plate as required. […] The cells were pelleted by centrifugation, and the supernatant was discarded, followed by the addition of a series of dilutions of anti-LTBR antibodies and incubation for 45 minutes at 4 C in the dark. Cells were washed two times with PBS with 3% (w/v) BSA before adding 60 ul of fluorescently labelled secondary antibody (goat anti-human IgG) diluted to 1:200 in PBS. Incubation continued at 4 C for at least 30 minutes, followed by two washes in PBS pH 7.4. Cells were either fixed with 2% PFA (30 minutes at 4 C) followed by washout and storage in 100 ul of PBS or immediately analysed on a Flow Cytometer. The data were analysed using FloJo V10 and GraphPad Prism. No binding to the HEK cell line was detected for any tested clones, confirming the specific interaction between anti-LTBR antibodies and LTBR receptor. The results are summarised in.

[12] = biological target: Human LTBR (Acro), recombinant protein (human, UniProt P36941 31-227, limits assumed); test: SPR (Carterra LSA), antibody captured by anti-human Fc, LTBR as analyte
Protocol: (§1) The binding of anti-LTBR antibodies to human and cynomolgus LTBR was investigated by Surface Plasmon Resonance (SPR) on Carterra LSA. An EC30M chip was used to capture the test antibodies. Activation with EDC and sNHS occurred in MES pH 5.5 to prepare the chip for amine coupling. Goat anti-human IgG Fc antibody was then captured to the chip via incubation for 10 minutes. Excess conjugation sites were quenched with 1M Ethanolamine pH 8. To measure monovalent binding kinetics, antibodies were printed/spotted onto the chip and allowed to bind to the goat antibody, followed by subsequent washing. After the preparation, the printed chip was exposed to repeated rounds of association and dissociation with increasing analyte concentrations. In this work, recombinant proteins (Human LTBR (Acro) or cyno LTBR His (R&D)) were serially diluted across a range starting at 1500 nM with 3-fold dilutions and 10 points. The curves were fitted to global fit in a 1:1 binding model to obtain KD values. The binding affinity to both species is reported.

[13] = biological target: T5, cyno LTBR His (R&D), recombinant protein (cynomolgus (Macaca fascicularis), UniProt P36941 31-227 (human entry), limits assumed); test: as above
T5 construct: bought protein used as analyte on Carterra LSA
Protocol: as §1

T1 sequence (P36941 31-435): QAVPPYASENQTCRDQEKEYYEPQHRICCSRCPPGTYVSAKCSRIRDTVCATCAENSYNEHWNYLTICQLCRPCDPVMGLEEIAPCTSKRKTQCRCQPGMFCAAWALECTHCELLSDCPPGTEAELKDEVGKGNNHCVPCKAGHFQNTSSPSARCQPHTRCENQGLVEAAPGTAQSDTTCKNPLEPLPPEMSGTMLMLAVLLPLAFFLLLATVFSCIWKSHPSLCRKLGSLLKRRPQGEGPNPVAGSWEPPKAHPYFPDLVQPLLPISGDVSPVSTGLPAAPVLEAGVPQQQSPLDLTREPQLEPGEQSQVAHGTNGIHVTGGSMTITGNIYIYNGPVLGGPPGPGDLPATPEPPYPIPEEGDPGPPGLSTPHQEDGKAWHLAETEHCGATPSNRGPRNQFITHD
Sequence of Human LTBR (Acro), recombinant protein (P36941 31-227 limits assumed): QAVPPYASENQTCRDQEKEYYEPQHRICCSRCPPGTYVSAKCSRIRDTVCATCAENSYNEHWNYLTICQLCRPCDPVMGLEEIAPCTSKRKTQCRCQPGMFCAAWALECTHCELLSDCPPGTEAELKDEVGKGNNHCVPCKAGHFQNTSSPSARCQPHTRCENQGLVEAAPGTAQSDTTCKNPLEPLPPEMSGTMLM
T5 sequence (P36941 other isoform, or with tags, fused parts or gaps limits assumed): as the sequence (P36941 31-227 limits assumed) above, with A2V, A7G, Q24R, I45S, N163D, K181R, L184S, P186S counted along it
T3 sequence (P36941 31-227 limits assumed): as the sequence (P36941 31-227 limits assumed) above
Sequence of cynomologus recombinant LTBR (Octet, Example 4.8) (P36941 other isoform, or with tags, fused parts or gaps limits assumed): as the sequence (P36941 31-227 limits assumed) above, with A2V, A7G, Q24R, I45S, N163D, K181R, L184S, P186S counted along it

B1: Clone 4.6 (bispecific antibody, human IgG1, kappa, L234A L235A)
heavy 1: not shown
heavy 2: QVQLVQSGAEVKKPGASVKVSCKASGYTFTGYYMHWVRQAPGQGLEWMGWIYPNTGGVNYAQNFQGRVTMTRDTSISTAYMELSRLRSDDTAVYYCARDDYNKNLDYWGQGTLVTVSSASTKGPSVFPLAPSSKSTSGGTAALGCLVKDYFPEPVTVSWNSGALTSGVHTFPAVLQSSGLYSLSSVVTVPSSSLGTQTYICNVNHKPSNTKVDKKVEPKSCDKTHTCPPCPAPEAAGGPSVFLFPPKPKDTLMISRTPEVTCVVVDVSHEDPEVKFNWYVDGVEVHNAKTKPREEQYNSTYRVVSVLTVLHQDWLNGKEYKCKVSNKALPAPIEKTISKAKGQPREPQVCTLPPSRDELTKNQVSLSCAVKGFYPSDIAVEWESNGQPENNYKTTPPVLDSDGSFFLVSKLTVDKSRWQQGNVFSCSVMHEALHNHYTQKSLSLSPG
light: not shown
notes: FAP:LTBR 2:1 heterodimer of FAP mAb (clone 3.6) with C terminal fused LTBR VHH (clone 1.7), human IgG1 LALA
For B1, the “HepG2 Reporter assay, HepG2:FAP-CHO-K1 Co-culture EC50” value [1] was 53 pM, the “CCL19 upregulation, HCC1187:CAF Co-culture EC50” value [2] was 13 pM and the “ICAM1 upregulation in CAFs monoculture assay EC50” value [3] was 10 pM. For the same binder, the “chemokine (CCL5) induction in RPMI-7951 EC50” value [4] was 24 pM, the “HCC-1187:RPMI7951 (cis-activation) co-culture assay CCL5 read-out EC50” value [5] was 13 pM and the EC50 [6] was 330 pM. It also gave a Kd [7] of 4300 pM, a Kd [8] of 17100 pM and a Kd [9] of 44.3 pM.

B2: Clone 2.5 (antibody, V domains shown)
VH: EVQLVESGGGLVQPGRSLRLSCAASGFTFDDYDIHWVRQAPGKGLEWVSGINWNSITIGYADSVKGRFTISRDNAKNSLYLQMNSLRAEDTALYYCAKDRGSGWRIFDYWGQGTLVTVSS
VL: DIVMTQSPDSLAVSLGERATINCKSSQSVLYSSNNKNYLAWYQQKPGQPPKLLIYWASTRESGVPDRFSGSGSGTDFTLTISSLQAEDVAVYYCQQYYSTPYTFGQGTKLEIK
notes: anti-LTBR mAb (bivalent)
In the case of B2, the “HepG2 reporter assay EC50 (w/o cross-linking antibody)” value [10] is reported as 240 pM, the “HepG2 reporter assay EC50 (with cross-linking antibody)” value [10] is reported as 140 pM and the EC50 [11] is reported as 5400 pM. It also gave a Kd [12] of 2100 pM and a Kd [13] of 1600 pM.

B3: Clone 2.6 (antibody, V domains shown)
VH: QVQLVQSGTEMKKPGASVKVSCKASGYTFSSYDISWVRQAPGQGLEWMGWFSAYNGNSNYAQKFQGRVTMTTDTSTNTAYMELRSLRSDDTAVYYCAREGYYGNSGFFDYWGQGTLVTVSS
VL: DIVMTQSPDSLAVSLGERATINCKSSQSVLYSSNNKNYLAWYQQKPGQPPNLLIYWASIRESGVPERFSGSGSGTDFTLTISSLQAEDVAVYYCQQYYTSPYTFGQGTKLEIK
notes: anti-LTBR mAb (bivalent)
For B3, the “HepG2 reporter assay EC50 (w/o cross-linking antibody)” value [10] was 73 pM, the “HepG2 reporter assay EC50 (with cross-linking antibody)” value [10] was 100 pM and the EC50 [11] was 3500 pM. The Kd [12] was 180 pM and the Kd [13] was 24 pM.

B4: Clone 2.2 (antibody, V domains shown)
VH: EVQLVESGGGLVKPGGSLRLSCAASRFTFSSYSMNWVRQAPGKGLEWVSSISPSSSYIYYADSVKGRFTISRDNAKNSLYLQMNSLRAEDTAVYYCARDHYNWNFDALDIWGQGTMVTVSS
VL: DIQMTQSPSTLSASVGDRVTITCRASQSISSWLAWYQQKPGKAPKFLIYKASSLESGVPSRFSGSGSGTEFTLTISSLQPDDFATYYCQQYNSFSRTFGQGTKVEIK
notes: anti-LTBR mAb (bivalent)
B4 was tested, and the “HepG2 reporter assay EC50 (w/o cross-linking antibody)” value [10] was 17000 pM, the “HepG2 reporter assay EC50 (with cross-linking antibody)” value [10] was 190 pM and the EC50 [11] was 720 pM. It also gave a Kd [12] of 560 pM and a Kd [13] of 710 pM.

B5: Clone 2.3 (antibody, V domains shown)
VH: EVQLVESGGGLVQPGGSLRLSCAASGFTFSSYAMSWVRQAPGKGLEWVSGISGSGGRTNYADSVKGRFTISRDNSKNTLYLQMNSLRAEDTAVYYCAKSDNWHYLDAFDIWGQGTMVTVSS
VL: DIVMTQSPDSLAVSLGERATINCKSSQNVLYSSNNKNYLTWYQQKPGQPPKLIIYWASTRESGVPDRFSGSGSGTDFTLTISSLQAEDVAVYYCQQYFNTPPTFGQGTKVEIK
notes: anti-LTBR mAb (bivalent)
B5 was tested, and the “HepG2 reporter assay EC50 (w/o cross-linking antibody)” value [10] was 130 pM, the “HepG2 reporter assay EC50 (with cross-linking antibody)” value [10] was 43 pM and the EC50 [11] was 660 pM. The Kd [12] was 580 pM and the Kd [13] was 390 pM.

B6: Clone 2.7 (antibody, V domains shown)
VH: EVQLVESGGGLVQPGGSLRLSCAASGFIFDDYDMHWVRQAPGKGLEWVSGINWNSNRVDYADSVKGRFTISRDNARNSLYLQMNSLRPEDTAFYYCVKDKTSSWYVFDSWGQGTPVTVSS
VL: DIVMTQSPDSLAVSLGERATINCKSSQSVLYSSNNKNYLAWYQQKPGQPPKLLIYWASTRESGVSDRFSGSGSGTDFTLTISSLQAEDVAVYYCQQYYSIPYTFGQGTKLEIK
notes: anti-LTBR mAb (bivalent)
In the case of B6, the “HepG2 reporter assay EC50 (w/o cross-linking antibody)” value [10] is reported as 170 pM, the “HepG2 reporter assay EC50 (with cross-linking antibody)” value [10] is reported as 180 pM and the EC50 [11] is reported as 9500 pM. The Kd [12] was 4300 pM and the Kd [13] was 1300 pM.

B7: Clone 2.1 (antibody, V domains shown)
VH: EVQLVESGGGLVKPGGSLRLSCAASGFTFSSYCMNWVRQAPGKGLEWVSSISTGNTYIYYSDSVKGRFTISRDNAKNSLYLQMNSLRAEDTAVYYCARARYNWNYDAFDIWGQGTMVTVSS
VL: DIQMTQSPSSLSASIGDRVTITCQASQDISNFLSWYQQKPGKAPNLLIFDASNLETGVPSRFSESGSGTDFSFTITSLQPEDIATYYCQQYYNVPLTFGGGTKVEIK
notes: anti-LTBR mAb (bivalent)
For B7, the “HepG2 reporter assay EC50 (with cross-linking antibody)” value [10] was 160 pM, the EC50 [11] was 1000 pM and the Kd [12] was 250 pM. For the same binder, the Kd [13] was 260 pM.
